# Data published in the nanobody polyreactivity screen of Harvey et al. (2022).
# Test: yeast display, Sf9 membrane polyspecificity reagent, FACS + sequencing; frameworks hold sequencing errors
# How it was run: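 Nanobodies came from a synthetic yeast display library in Saccharomyces cerevisiae BJ5465, induced with galactose for 36–48 hours and stained for 1 hour at 4 °C with 10% biotinylated, detergent-solubilized Sf9 membrane reagent. Cells were enriched on streptavidin microbeads and then FACS-sorted, with low and high (top ~1%) gates set on anti-HA fluorescence for expression and streptavidin fluorescence for reagent binding. Each polyreactivity label reflects the gate a clone came from. Genes were amplified by colony PCR, sequenced by MiSeq 2 × 250 and filtered by CDR length.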
row,Sequence,polyreactivity (PSR sort gate)
1,QVQQQESGGGLVQAGGSLRLSCAASGYIFQAENMGWYRQAPGKERELVAAITIGASTYYADSVRGRFTISRDNAKNTVYLQMNSVKPEDTAVYYCAAKRFQYRTLYDYWGQGTQVTVSS,high polyreactivity
2,HVQLVESGGGLVQAGGCLRLSCAASGRICIFYAMGWYRQAPGKERELVAAISSGPSTTYADSVKGRFTISRDNAKNTVYLQMNSLNPEDTAVYSCARRDGTTQALFGYDYWGQGTQVTVSS,low polyreactivity
3,QVHLVESGGGLVQAGGSLRLSCAASGRIFVGYAMGWSRQAPGKERELVAASTSGGITNYADSVKGRFTISRDNAKNTVYIQMTSLKPEATAVYYCNVKRRVSGYYGYKDYYWGQGTQVTVSS,high polyreactivity
4,QVQLVESGGGLGQAGGSLRLSCAASGRIFRDYAMGWYRQAPGKERQLVAAISWSGGSSYYADSVKGRFTISRDNAKNTVDLQMNSLKQEDTAVYYCAVEYYGGDSYRYDYWGQGTQVTVSS,low polyreactivity
5,QVQLVESGGGLVQAGGSLRLSCASSGSIFVTYTMGWYRQAPGKERELVATISGGSSTYADSVKGRFTISRDNAKNTVYLQMNSLKPEDTAVYYCNAVWYFKPPPLYYIPYRQYDYWGQGTQVTVSS,low polyreactivity
6,QVQLQESGGGLVQAGGSLCMSCAASGSISDYIFMGWYRQAPGKEREFVAGIGIGGNTNYADSVKGRFTISRDNAKNTVYLQMNSLKPEDTAVYYCAANATYTDYYAYWGQGTKVTVSS,low polyreactivity
7,QVQLVESGGGLVQAGGSLRLSCAASGRTFSLNAMGWYRQAPGKERELVAAINRGGTTYYADSVKGRFTISRDNAKNTVYLQMNSLKPEDTAVYDCAARVWGRWAGSYAWWHGYNSWGQGTQVSVSS,high polyreactivity
8,QVQLVESGVGLVQAGCSLRLSCAASGFTNAMGWYRQAPGKERELVAAISYSGDSTNYADSLKGRFTISRDNAKNTVYLQMNSMKPVDTAVYYCNASSPYDYDWGQGTQVTVSS,low polyreactivity
9,QVQLVESGGGLVQGGGSLGLSCAASGRIFPVNAMGWYRQAPGKERELVAAISTTGARTYYADSVKGRFTISRDNAKNTVYLQMNSLKPEDTAVYYCAAKQFSVTLSNYWGQGTQVTVSS,low polyreactivity
10,QVQLVESGGGLVQAGGSLRLSCAASGSTFGGNAMGWYRQAPGKERELVAAISSSGGSTYYADSVKGRFTISRDNAKNTVYLQMNSLKPEDTAVYYCAALYHWTYDYWGQGTQVTVSS,low polyreactivity
11,QVQLVESGGGLVQAGGSLRLSCAACGSIFEAYAMGWYRKAPGKERELVAVINYSGGSTYYADSVKGRFTISRDNAKNTVYLQMNSLKPEDTAVYYCAADTVRPWYAYKAHDYWGLGTQVTVSS,low polyreactivity
12,QVQLVESGGGLVQAGGSLRLSCAASGSIFWRYAMGWYRQAPGKERELVATITSRGGSTYYADSVKGRFTISRDNAKNTVYLQMNSLKQEDTAVYYCAAGWLPKYGYWGQGTQVTVSS,low polyreactivity
13,QVQLVESGGGLVQAGGSLRLSCAASGRIFPSYAMGWYRQAPGKERELVAAITSSDSTYYADSVKGRFTISRDNAKNTVYLQMNSLKPEDTAVYYCAAAYSYSGWWWFGYWGQGTQVTVSS,high polyreactivity
14,QVQLEESGGGLVQAGGSLRLSCAASGFIFSRYDMGWYRQAPGKERELVAAITSGGSTYYADSVKGRFTISRDNAKNTVYLQMNSLKPEDTAVYYCNAYVRSDYDYWGQGTQVTVSS,high polyreactivity
15,QVQLVESGGGLVQAGGSLRLSCAASGFTFTYYAMGWYRQAPGKERELVAAISSSGGRTYYADSVKGRFTISRDNAKNTVYLQMNSLKPEDTAVYYCAARSVSATPDFHYWGQGTQVTVSS,high polyreactivity
16,QVQLVESGGGLVQAGGSLRLSCAASGRIFGYYAMGWYRQAPGKERELVATITFGGGSTYYADSVKGRFTISRDNAKNTVYLQMNSLKPEDTAVYFCAADSGYLGIYGDEYSWGQGTQVTVSS,low polyreactivity
17,QVQLVDTGGGLVQAGGSLRLSCSASGSNFEYNDMVWYRHAHGKERELVAAISSGGDTNYADSVKGRFTISRDNAKNTVYLQKNSLKAEDTAVYYCNAEGLILYDYWGQGTQVTVSS,low polyreactivity
18,QVQLVESRGGLVQAGGSLRLSCAASGSIFYRYARGWYRQAPGKERELVAAITYSGGRTYYADSVKGRFTISRDNAKNTVYLQMNSLKPEDTAVYYCAAEKQSYGSPQGYDYWGQGTQVTVSS,low polyreactivity
19,QVQLVESGGGLVQAGGSLRLSCAASGSTFWHNAMGWYRTAHGKERELVAGISSIGGRTYYADSVKGRFTISRDNAKNTVYLQMNSLKQEDTAVYYCAARYRRTIPWFAPGTDHNYWGQGTQVTVSS,high polyreactivity
20,QVQLVESGGGLVQAGGSLRLSCAASGRILPFNAMGWYRQAPGKERELVATITRRGGSTFYADSVKGRFTMSRDNAKNTVYLQMNSLKPEDTAVYYCAKTYWYVGSSRTYNYWGQGTQVTVSS,high polyreactivity
21,QVQLVESGGGLVQAGGSLLLSCAASGRTFWPYAMGWYRQAPGKERELVAAITSDGSTTYADSVTGRFTISRDNAKNTVYLQMNSLTPEDTAVYFCAAYGYYYYQTIPMDYWGQGTQVTVSS,low polyreactivity
22,QVQLVESGGGLVQAGGSLLLSCAASGSTSQPYAMGWYRQAPGKERELVASITNGGITYYADSVKGRFTISRDNAKNTVYLQLNSLKPEVTAVYYCNADNVFEGYDRRSARACYRYYYWGQGTQVTVSS,low polyreactivity

row,Sequence,polyreactivity (PSR sort gate)
1,QVQLVESGGGLVQAGGSLRLSCAASGRTFGSYAMGWYRQAPGKEREFVASITGATTNYADSVKGRFTISRDNAKNTVYLQMNSLKQEDTAVYYCATDVGFGRKQRPHRPGYGYWGQGTQVTVSS,low polyreactivity
2,QVQLVESGGGLVQAGGSLRLSCASSGFIFGRNAMGWYRQAPGKERELVAGISSRGGRTYYADSVKGRFTISRDNAKITVYLEMNSLKPEDTAEYYCAAAGLTDYVRYDYWGQGTQVTVSS,high polyreactivity
3,QVQLVESGGGLVQAGGSLRVSCAASGRTFKYYARGWYRQAPGKARELVAAISGSGGSTYYADSVKGRFTISRDNAKNTVYLQMNSLKPEDTAVYYCAAAGKETSRNAYDSWGQGTQETVSS,high polyreactivity
4,QVQLVESGGGLVQGGGSLRLSCAASGINFGLYTMGWYRQAPGKERELVAAISDSGGRTYYADSVKGRFTISRDNAQNTVYLQMNSLKPEDTSVYYCAAEFWYVWEYNYWGQGTQVTVSS,high polyreactivity
5,QVQLVESGGGLVQAGGSLRLSCAASGSTFVGYAMGWYRQAPGKERELVAAISWRGTRTYYADSVKGRFTISRDNAKNTVYLQMNSLKPEDTAVYYCAAVARQGKGYDYWGQGTQVTVSS,high polyreactivity
6,QDQLVESGGGLVQAGGSLRLSCASSGSTFPWYTMGWSRQAPGKERELVAAIDGSAGDTYYADSVKGRVTISRDNAKNTVYLQMNSLKPEDTAVYYCATRTWRWGYLHYDYWGQGTQVTVSS,low polyreactivity
7,QVHRVESGGGLVQAGGSLRLSCDASGNIFYDYAMGWYRQGPGKERELVAAIDLSDGSTYYSDSVKGRFTISRDNAKNTVYFQMNSLKPDDTAVYYCAADIIAAWTSDYYYWGQGSQVTVSS,high polyreactivity
8,QVQLVESGGGLVQAGGSLRLSCAASGSTFGDYAMGWYRQAPGKREFVAAISFSGGNTYYADSVKGRFTISRDNAKNTVYLQMNSLKPEDTAVYYCNASSYPWEYYYLYYGYDYWGQGTQVTVSS,low polyreactivity
9,QVQLVESGGGLVQAGGSLRLSCAASGSTFKVYAMGWYRQAPGKESELVATISKSGSTYADSVKGRFTISRDNAKNTVYLQMNSLKPEDTAVYYCARVKYSGVVYKYDYWGQGTQVTVSS,high polyreactivity
10,QVQLVESGGGIVQAGGSLRLSCAASGYTISYYAMGCYRQAPGKERELVASISWRGGGTYYADSVKGRFTISRDNAKNTVYLQMNSLKAEDTAVYYCNIDYYATPYGYWGQGTQVTVSS,low polyreactivity
11,QVQLVESGGGLVQAGGSLRLSCAASGSTFAIYAMGWYRPAPGKERELVASISGGSTNYADSVKGRFTISRDNAKNTVDLQMNSLKPEDTADYYCAARGALHHWYRYDYWGQGTQVTVSS,low polyreactivity
12,QVQLVESGGGLVQAGGSLRLSCAASGITFYVYAMGWYRQAPGKERELVAAISSGSSTYYSDSVKGRFTISRDNAKNTVYLQMNSLKPEDTAVYYCAARYRKYLSEYWGQGTQVTVSS,high polyreactivity
13,QVQLVESGGGLVQAGGSLRLSCAASGSIFDVYAMGWYRQAPGKERELVAAITGGGSTYYADSVKGRFTISRDNAKNSVYLQMNSLKPEDTAVYYCNADRRRRSGGFAGWHFQRNEYWGHGTQVTVSS,low polyreactivity
14,QVQLVESGGGLVQAGGSLRLSCAASGSIFPLYAMGWSRQAPGKERELVAAITWRGGSTYYADSVKGRFTITRDNAKNTVYLQMNSLKPEDTAVYYCNRDLVPRFDYWGQGTQVTVSS,low polyreactivity
15,QVQLVESGGGLVQAGGSLRLSCAASGSSVYRYAMGWYRQAPGKERELVAAITWSGGSTYYADSVKGRFTISRDNAKNTVYLQMNSLKPEDSAVYYCAVEPFSNEFYYWGQGTQVTVSS,low polyreactivity
16,QVQVVESGGGLVHAGGSHRLSCAASGSIFPPYSMGWYRQAPGKEREFVAAISYSGGSTYYADSVKGRFTISRDNGKHTVYFQMNSLKPEDTAVYYCGADRYGFYLESYYWGQGTQGTVSS,low polyreactivity
17,QVQLVESGGGIVQAGGSLRLSCAASGSTFVSNAMGWYRQAPGKERELVAAITTGGSTYYADSVKGRFTISRDNAKNTVYLQMNSLKPEDTAVYYCAADSVLNWFWGQGTQVTVSS,low polyreactivity
18,QVQLVESGGGLVQAGGSLRLSCDASGFIFYSYAMGWYRQAPGKERELVAGITSGGITSYADSVKGRFTISRDNAKNTVYLQMNSLKPEDTAVYYCAKDVRSYRISVYGVGYWGQGTQVTVSS,high polyreactivity
19,QVQLVESGGGLVQAGGSLRLSCAASGFTFGRYAMGWYRQAPGKEREFVAAITWSGGGTYYADSVKGRFTISRDNAKNTVYLQMNSLKPEDTAVYYCAADRRAYGGGYWGQRTQVTVSS,high polyreactivity
20,QVQLVESGGGLVQAGGSLRLSCAASGSTFDDNAMGWYRQAPGKERELVASITYRGGSTYYADSVKGRFTISRDNAKNTVYLQMNSLKPEDTAVYYCNADYTGAEYDYWGQGTQVTVSS,low polyreactivity
21,QVQLVESGGGLVQAGGSLRLSCAASGRTFDKYAMGWYRQAPGKERELVAAISGSGGRTYYADSVKGRFTISRDNETNTVYLQMNSLKPEDTAVYYCAADTRSYTYYYWGQGTQVTVSS,high polyreactivity
